# From patent US20260365734 (published 2026)
# Residue numbers refer to the chain shown, from its start.
# B1: 4D2-hv1-NT (antibody, V domains shown)
# VH: QVQLVESGGGLVKPGGSLRLSCAASGFSASDVVMAWYRQAPGKQREFVANLGASSTTRYADSVKGRFTISRDNAKNSLYLQMNSLRAEDTAVYYCNALVWTGSSYNNWGQGTQVTVSS
# B2: 5C12-hv7-NT (antibody, V domains shown)
# VH: B1 VH with A49S, L51I, G52A, S54R, S55G, T56S, R58D
# B3: 4E2-hv2-NT (antibody, V domains shown)
# VH: B1 VH with Q1E, S30G, A49S, L51I, G52A
# B4: 1F4-hv7-NT (antibody, V domains shown)
# VH: B1 VH with L51I, G52A
# B5: 4E2-hv1-NT (antibody, V domains shown)
# VH: B1 VH with Q1E, S30G, L51I, G52A
# B6: 5F8-3A3 (antibody, V domains shown)
# VH: EVQLVESGGGLVQPGGSLRLSCAASGFDFSDTHMSWVRQAPGKERELVAIITGGGSTDYVDSVKGRFTISRDNSKNTLYLQMNSLRAEDTAVYYCLARRTTIYWGQGTQVTVSS
# B7: 5F8-8E3 (antibody, V domains shown)
# VH: B6 VH with G53S, L96N, R99L
# B8: 5F8-8D4 (antibody, V domains shown)
# VH: B6 VH with H33F, G53S, L96N
# B9: 5F8-6D6 (antibody, V domains shown)
# VH: B6 VH with H33A, G53S, T57V, L96R
# B10: 5F8-8H3 (antibody, V domains shown)
# VH: B6 VH with D31M, G53S, S56K, L96N, T100A
# B11: 5F8-4B12 (antibody, V domains shown)
# VH: B6 VH with S30P, G53S, S56F, L96R
# B12: 5F8-7D5 (antibody, V domains shown)
# VH: B6 VH with S30E, G53S, G55C, L96N, T100A
# B13: R2-4H8 (antibody, V domains shown)
# VH: EVQLVESGGGLVQPGGSLRLSCGASGIFFSGVHMGWYRQAPGKERELVALITDSGSADYVDSVKGRFTISRDNAKNTVYLQMNSLKFEDTAVYYCNARTTTIYWGQGTQVTVSS
# B14: R3-2A11 (antibody, V domains shown)
# VH: QVQLVESGGDLVQPGGSLRLSCAASGIDFSDTHMGWYRQAPGKQRELVALITSGGFTDYPDSVKGRFTISRDNAKNTMYLQMNTLKLEDTAVYYCNARRTTIYWGQGTQVTVSS
# B15: R2-3A5 (antibody, V domains shown)
# VH: B14 VH with Q1E, D10G, P60A
# B16: R2-6D2 (antibody, V domains shown)
# VH: B14 VH with D10G, Q44E, P60A, L87F, R99K
# B17: R2-1A3 (antibody, V domains shown)
# VH: B14 VH with Q1E, D10G, A23V, I27F, G55A, P60A, M78V, L87F
# B18: R2-6A10 (antibody, V domains shown)
# VH: B14 VH with D10G, Q44E, P60A, L87F, T100S
# B19: R2-1G10 (antibody, V domains shown)
# VH: B13 VH with E1Q, G23A, G31D, V32T, L50I, D53S, S54G, A57T, T99R
# B20: R1-1C3 (antibody, V domains shown)
# VH: B13 VH with E6Q, G23A, G31D, V32T, L50I, D53S, S54G, A57T, S84T, T99R
# B21: R2-1G4 (antibody, V domains shown)
# VH: B14 VH with D10G, Q44E, P60A, L87F
# B22: 3H1-hv7 (antibody, V domains shown)
# VH: B6 VH with E1Q, L11V, F27I, S35H, E44Q, G53S, L96N, T100S
# B23: 3H1-2F4 (antibody, V domains shown)
# VH: B6 VH with E1Q, L11V, F27I, T32L, S35H, E44Q, G53S, L96N, R99S, T100S
# B24: 3H1-2A2 (antibody, V domains shown)
# VH: B6 VH with E1Q, L11V, F27I, S35H, E44Q, G53S, S56F, L96N, T100S
# B25: 3H1-3B9 (antibody, V domains shown)
# VH: B6 VH with E1Q, L11V, F27I, S35H, E44Q, G53S, S56F, L96N, R99T, T100S
# B26: 3H1-2G3 (antibody, V domains shown)
# VH: B6 VH with E1Q, L11V, F27I, S35H, E44Q, G53S, G54S, L96N, T100S, Y103L
# B27: 3H1-6D2 (antibody, V domains shown)
# VH: QVQLVESGGGVVQPGGSLRLSCAASGIDFNDTHMHWVRQAPGKQRELVAIITSRGSTDYVDSVKGRFTISRDNSKNTLYLQMNSLRAEDTAVYYCNARRSTLYWGQGTQVTVSS
# B28: 3H1-1G9 (antibody, V domains shown)
# VH: B27 VH with N30D, R54G, S56L, R99T, L102I
# B29: 4E2-Alpaca-NT (antibody, V domains shown)
# VH: EVQLVESGGGSVQDGGSLTLSCAASGFSAGDVVMAWYRQAPGKQREFVANIAASSTTRYTDSVKGRFTISRDNAKNTVYLQMNSLKSEDTAVYYCNALVWTGSSYNNWGQGTQVTVSS
# B30: 4D2-hv4-NT (antibody, V domains shown)
# VH: B1 VH with A49S, R58N
# B31: 4D2-Alpaca-NT (antibody, V domains shown)
# VH: B1 VH with K13Q, P14A, N73D, S77T, L78V, Y79S, R86K, A87S
# B32: 4D2-hv3-NT (antibody, V domains shown)
# VH: B1 VH with A49S, R58Y
# B33: 4D2-hv2-NT (antibody, V domains shown)
# VH: B1 VH with A49S
# B34: 4E2-hv3-NT (antibody, V domains shown)
# VH: B1 VH with Q1E, S30G, A49S, L51I, G52A, R58Y
# Target: cynomolgus PD-L1 (cynomolgus)
# Sequence (chain, as listed by the source): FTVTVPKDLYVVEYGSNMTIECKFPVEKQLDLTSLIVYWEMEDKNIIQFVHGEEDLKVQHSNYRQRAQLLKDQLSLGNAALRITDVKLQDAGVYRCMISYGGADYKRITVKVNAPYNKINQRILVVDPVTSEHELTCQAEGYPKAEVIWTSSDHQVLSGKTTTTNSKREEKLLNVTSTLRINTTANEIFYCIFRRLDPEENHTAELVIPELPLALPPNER
# Test: BLI
row,Kd [pM],Binder
1,3760,B1
2,4340,B2
3,3240,B3
4,3870,B4
5,3400,B5

# Target: human PD-L1 ECD (human, UniProt Q9NZQ7)
# Sequence (Q9NZQ7 19-238): as the sequence (chain, as listed by the source) above, with T33A, S34A, N62S, Q68R, R82Q, L173F, A185T, I192T, L215H counted along it
# Test: BLI
row,Kd [pM],Binder
1,4540,B1
2,8120,B2
3,4750,B3
4,6390,B4
5,4640,B5

# Target: T1, human PD-L1 (cell surface) (human, UniProt Q9NZQ7)
# T1 sequence (Q9NZQ7 19-238): as the sequence (chain, as listed by the source) above, with T33A, S34A, N62S, Q68R, R82Q, L173F, A185T, I192T, L215H counted along it
# Test: FACS
row,EC50 [pM],Binder
1,730,B6
2,570,B7
3,490,B8
4,520,B9
5,510,B10
6,630,B11
7,510,B12

# Target: T1, human PD-L1 (cell surface)
# Test: FACS
# Remark: another data set of the same source
row,EC50 [pM],Binder
1,870,B13
2,1160,B14
3,600,B15
4,930,B16
5,880,B17
6,540,B18
7,630,B19
8,1690,B20
9,420,B21

# Target: T1, human PD-L1 (cell surface)
# Test: FACS, T24 cells
row,EC50 [pM],Binder
1,43,B1
2,83,B2
3,47,B3
4,47,B4
5,48,B5

# Target: T2, mouse PD-L1 (cell surface) (mouse, UniProt Q9EP73)
# T2 sequence (Q9EP73 19-238): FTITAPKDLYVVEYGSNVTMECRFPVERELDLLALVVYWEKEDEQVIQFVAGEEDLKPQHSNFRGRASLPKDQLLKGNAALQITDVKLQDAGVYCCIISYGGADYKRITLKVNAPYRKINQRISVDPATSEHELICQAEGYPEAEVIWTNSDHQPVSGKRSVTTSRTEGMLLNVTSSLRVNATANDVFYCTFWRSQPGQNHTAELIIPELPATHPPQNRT
# Test: FACS, Hepa1-6 cells
row,EC50 [pM],Binder
1,6780,B22
2,650,B23
3,310,B24
4,300,B25
5,310,B26
6,510,B27
7,550,B28

# Target: T1, human PD-L1 (cell surface)
# Test: FACS, NCI-H441 cells
row,EC50 [pM],Binder
1,41,B29
2,65,B1
3,112,B30
4,44,B31
5,271,B32
6,54,B3
7,99,B33
8,56,B4
9,39,B5
10,55,B34

# Target: T1, human PD-L1 (cell surface)
# Test: FACS, CHO-h-PD-L1 cells
row,EC50 [pM],Binder
1,109,B29
2,143,B1
3,171,B30
4,103,B31
5,598,B32
6,110,B3
7,203,B33
8,130,B4
9,110,B5
10,167,B34

# Target: T2, mouse PD-L1 (cell surface)
# Test: FACS, 293T m-PD-L1 cells
row,EC50 [pM],Binder
1,560,B22
2,1000,B23
3,1420,B24
4,970,B25
5,1570,B26
6,1290,B27
7,1010,B28
